In assay [1] the target is T1, mouse FcγRIV (mouse, UniProt A0A0B4J1G0 21-203).
T1 construct: also called mFcγRIV; mFc γ RIV
T1 sequence: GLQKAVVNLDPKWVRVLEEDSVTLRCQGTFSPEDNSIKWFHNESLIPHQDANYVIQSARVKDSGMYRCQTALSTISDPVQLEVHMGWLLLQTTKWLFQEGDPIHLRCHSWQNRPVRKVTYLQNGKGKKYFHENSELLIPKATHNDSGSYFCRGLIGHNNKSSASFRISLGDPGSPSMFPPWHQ
In words: SPR (Biacore), method of Reference Example 2. Here is the method:
(§1) The binding activities of these antibodies to the mouse FcγRs were evaluated by the method of Reference Example 2.

Assay [2] deals with T2, mouse FcγRI (mouse, UniProt P26151 25-297, limits assumed).
T2 construct: also called mFcγRI; mFc γ RI
T2 sequence (looked up): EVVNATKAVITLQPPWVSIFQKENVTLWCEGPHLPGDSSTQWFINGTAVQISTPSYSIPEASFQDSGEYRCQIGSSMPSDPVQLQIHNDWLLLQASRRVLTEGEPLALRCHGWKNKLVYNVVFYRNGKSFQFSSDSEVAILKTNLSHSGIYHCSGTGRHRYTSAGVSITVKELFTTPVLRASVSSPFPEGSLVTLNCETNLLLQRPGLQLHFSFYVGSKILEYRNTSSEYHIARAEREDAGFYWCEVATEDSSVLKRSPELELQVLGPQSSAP
Nature of the assay: SPR (Biacore), method of Reference Example 2. Here is the method: as §1

Assay [3] deals with T3, FcγRIIa R type extracellular domain with C-terminal His tag (human, UniProt P12318 34-217).
T3 construct: extracellular domain; also called FcgRIIaR; not shown: His tag at the C terminus
T3 sequence (looked up): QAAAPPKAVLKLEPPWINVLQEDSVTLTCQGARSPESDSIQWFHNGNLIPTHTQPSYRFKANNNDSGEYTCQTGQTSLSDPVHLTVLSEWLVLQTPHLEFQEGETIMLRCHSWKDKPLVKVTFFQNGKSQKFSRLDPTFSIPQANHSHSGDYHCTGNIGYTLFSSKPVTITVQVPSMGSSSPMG
Nature of the assay: SPR; ratio of KD values, reference IL6R-G1d/IL6R-L. In general terms: Surface plasmon resonance follows binding to a sensor surface in real time, without labels.

In assay [4] the target is T4, FcγRIIb extracellular domain with C-terminal His tag (human, UniProt P31994 43-217).
T4 construct: extracellular domain; also called FcgRIIb; not shown: His tag at the C terminus
T4 sequence (looked up): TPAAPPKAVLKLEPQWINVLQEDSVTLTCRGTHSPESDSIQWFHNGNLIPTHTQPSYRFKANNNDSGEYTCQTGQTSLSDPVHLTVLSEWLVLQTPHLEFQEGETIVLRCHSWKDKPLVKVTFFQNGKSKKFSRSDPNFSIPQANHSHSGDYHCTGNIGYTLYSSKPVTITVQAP
In words: SPR; ratio of KD values, reference IL6R-G1d/IL6R-L.

Assay [5] has as its target T5, FcgRIIIaV (human, UniProt P08637 17-208).
T5 construct: extracellular domain; also called FcγRIIIa V type
In words: SPR (Biacore).

The target in assay [6] is T6, FcgRIIaH (human, UniProt P12318 34-217).
T6 construct: extracellular domain; also called FcγRIIa H type
T6 sequence (looked up): T3 sequence (looked up) with R134H
In words: SPR (Biacore).

For assay [7], the target named is T7, FcgRIa (human, UniProt P12314 16-292).
T7 construct: also called FcγRIa; FcγRI
T7 sequence (P12314 16-292): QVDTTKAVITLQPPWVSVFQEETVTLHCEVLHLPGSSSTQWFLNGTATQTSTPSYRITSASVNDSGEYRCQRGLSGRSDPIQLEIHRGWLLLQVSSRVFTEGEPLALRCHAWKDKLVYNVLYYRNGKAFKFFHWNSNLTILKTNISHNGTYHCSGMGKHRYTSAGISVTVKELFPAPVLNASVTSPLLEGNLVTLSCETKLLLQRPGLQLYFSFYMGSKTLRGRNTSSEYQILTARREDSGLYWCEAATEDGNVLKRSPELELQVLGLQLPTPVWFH
In words: SPR (Biacore).

Assay [8] addresses T8, FcgRIIaR (human, UniProt P12318 34-217).
T8 construct: extracellular domain; also called FcγRIIa R type; FcγRIIa (R type)
T8 sequence (looked up): T3 sequence (looked up)
In words: SPR (Biacore).

Assay [9] has as its target T9, FcgRIIb (human, UniProt P31994 43-217).
T9 construct: extracellular domain; also called FcγRIIb
T9 sequence (looked up): T4 sequence (looked up)
Nature of the assay: SPR (Biacore).

Assay [10] addresses T10, human FcγRIIa H type extracellular domain with C-terminal His tag (human, UniProt P12318 34-217).
T10 construct: extracellular domain; also called FcgRIIaH
T10 sequence (looked up): T3 sequence (looked up) with R134H
In words: SPR, antibody captured, FcgR analyte.

Assay [11] has as its target T11, human FcγRIIb extracellular domain with C-terminal His tag (human, UniProt P31994 43-217).
T11 construct: extracellular domain; also called FcgRIIb
T11 sequence (looked up): T4 sequence (looked up)
Nature of the assay: SPR, antibody captured, FcgR analyte.

The target in assay [12] is T12, human FcγRIIIa V type extracellular domain with C-terminal His tag (human, UniProt P08637 17-208).
T12 construct: extracellular domain; also called FcgRIIIaV
T12 sequence (P08637 17-208 F176V): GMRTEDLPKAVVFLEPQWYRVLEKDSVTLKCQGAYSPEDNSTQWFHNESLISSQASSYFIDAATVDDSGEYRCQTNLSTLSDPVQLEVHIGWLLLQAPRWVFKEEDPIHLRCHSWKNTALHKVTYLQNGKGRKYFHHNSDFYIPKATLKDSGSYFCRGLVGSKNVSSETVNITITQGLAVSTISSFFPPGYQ
Nature of the assay: SPR, antibody captured, FcgR analyte.

Assay [13] addresses T13, human FcγRIa extracellular domain with C-terminal His tag (human, UniProt P12314 16-292).
T13 construct: Whole entry named; also called FcgRIa
Nature of the assay: SPR, antibody captured, FcgR analyte.

Assay [14] has as its target T14, human FcγRIIa R type extracellular domain with C-terminal His tag (human, UniProt P12318 34-217).
T14 construct: extracellular domain; also called FcgRIIaR
T14 sequence (looked up): T3 sequence (looked up)
Nature of the assay: SPR, antibody captured, FcgR analyte.

For assay [15], the target named is T10, human FcγRIIa H type extracellular …. Nature of the assay: SPR, KD of IL6R-G1d/IL6R-L divided by KD of variant.
The target of assay [16] is T11, human FcγRIIb extracellular domain with …. The assay is described as above.
For assay [17], the target named is T12, human FcγRIIIa V type extracellular …. The assay is described as above.
In assay [18] the target is T13, human FcγRIa extracellular domain with …. The description is as above.
Assay [19] deals with T14, human FcγRIIa R type extracellular …. Described as above.

Substitutions are numbered along the chain they refer to. Numbers in names are those of the source.

T5 sequence (P08637 17-208 F176V): as above
T13 sequence (P12314 16-292): as the sequence (P12314 16-292) above

B1: VH3/L (WT)-mIgG1-mF44 (antibody)
heavy: QVQLQESGPGLVKPSETLSLTCAVSGHSISHDHAWSWVRQPPGEGLEWIGFISYSGITNYNPSLQGRVTISRDNSKNTLYLQMNSLRAEDTAVYYCARSLARTTAMDYWGEGTLVTVSSAKTTPPSVYPLAPGSAAQTNSMVTLGCLVKGYFPEPVTVTWNSGSLSSGVHTFPAVLQSDLYTLSSSVTVPSSTWPSETVTCNVAHPASSTKVDKKIVPRDCGCKPCICTVPEVSSVFIFPPKPKDVLTITLTPKVTCVVVDISKDDPEVQFSWFVDDVEVHTAQTQPREEQFNSTFRSVSELPIMHQDWLNGKEFKCRVNSADFPAPIEKTISKTKGRPKAPQVYTIPPPKEQMAKDKVSLTCMITDFFPEDITVEWQWNGQPAENYKNTQPIMDTDGSYFVYSKLNVQKSNWEAGNTFTCSVLHEGLHNHHTEKSLSHSPGK
light: not shown
In the case of B1, the binding result in [1] and in assay [2] was “no binding” throughout.

B2: VH3/L (WT)-mIgG1 (antibody)
heavy: B1 heavy with D323A
light: not shown
notes: mouse IgG1 constant region
On to B2, for which the binding result in [1] and in [2] was “no binding” each time.

B3: VH3/L (WT)-mIgG1-mF46 (antibody)
heavy: B1 heavy with S235D
light: not shown
On to B3, for which the binding result in assay [1] and in assay [2] was “no binding” throughout.

B4: IL6R-P587/IL6R-L (antibody, human IgG1, kappa)
heavy: QVQLQESGPGLVKPSETLSLTCAVSGHSISHDHAWSWVRQPPGEGLEWIGFISYSGITNYNPSLQGRVTISRDNSKNTLYLQMNSLRAEDTAVYYCARSLARTTAMDYWGEGTLVTVSSASTKGPSVFPLAPSSKSTSGGTAALGCLVKDYFPEPVTVSWNSGALTSGVHTFPAVLQSSGLYSLSSVVTVPSSSLGTQTYICNVNHKPSNTKVDKKVEPKSCDKTHTCPPCPAPDLLGGDSVFLFPPKPKDTLMISRTPEVTCVVIDVAEEDGEVKFNWYVDGVEVHNAKTKPREEQYNSTYRVVSVLTVLHQDWLNGKEYKCKVSNKALPAPIEKTISKAKGQPREPQVYTLPPSRDELTKNQVSLTCLVKGFYPSDIAVEWESNGQPENNYKTTPPVLDSDGSFFLYSKLTVDKSRWQQGNVFSCSVMHEALHNHYTQKSLSLSP
light: not shown
notes: human IgG1
Take B4: in [3], the “KD of G1d for FcgRIIaR/KD of Each Variant for FcgRIIaR” value was found to be 1.4. Moreover, the “KD of G1d for FcgRIIb/KD of Each Variant for FcgRIIb” value in assay [4] was 256.

B5: IL6R-P699/IL6R-L (antibody, human IgG1, kappa)
heavy: B4 heavy with A269R, E270P
light: not shown
notes: Printed H238P read as H268P
With B5, the “Relative FcgRIIIaV-binding Activity” value in [5] was 0.005 KD(G1d)/KD(variant). The “Relative FcgRIIaH-binding Activity” value in [6] was 0.004 KD(G1d)/KD(variant). For the same molecule, the “Relative FcgRIa-binding Activity” value in assay [7] was 0.0005 KD(G1d)/KD(variant). The “Relative FcgRIIaR-binding Activity” value in assay [8] was 0.022 KD(G1d)/KD(variant). For the same molecule, in assay [9], the “Relative FcgRIIb-binding Activity” value was 1.26 KD(G1d)/KD(variant).

B6: IL6R-P730/IL6R-L (antibody, human IgG1, kappa)
heavy: B4 heavy with G239Q, A269R, E270P, Y298E
light: not shown
B6: the “Relative FcgRIIIaV-binding Activity” value in assay [5] was 0.005 KD(G1d)/KD(variant). In addition, the “Relative FcgRIIaH-binding Activity” value in assay [6] is 0.003 KD(G1d)/KD(variant). For the same molecule, the “Relative FcgRIa-binding Activity” value in [7] is 0.0002 KD(G1d)/KD(variant). In assay [8], the “Relative FcgRIIaR-binding Activity” value is 0.013 KD(G1d)/KD(variant). The “Relative FcgRIIb-binding Activity” value in assay [9] is 0.504 KD(G1d)/KD(variant).

B7: IL6R-P702/IL6R-L (antibody, human IgG1, kappa)
heavy: B4 heavy with F243M, A269R
light: not shown
Take B7: the “Relative FcgRIIIaV-binding Activity” value in assay [5] is 0.008 KD(G1d)/KD(variant). Moreover, the “Relative FcgRIIaH-binding Activity” value in assay [6] is 0.006 KD(G1d)/KD(variant). Further, in assay [7], the “Relative FcgRIa-binding Activity” value is 0.0006 KD(G1d)/KD(variant). Also, in [8], the “Relative FcgRIIaR-binding Activity” value is 0.023 KD(G1d)/KD(variant). Also, in assay [9], the “Relative FcgRIIb-binding Activity” value was 1.27 KD(G1d)/KD(variant).

B8: IL6R-P712/IL6R-L (antibody, human IgG1, kappa)
heavy: B4 heavy with A269R, E270P, Y298E
light: not shown
As to B8, the “Relative FcgRIIIaV-binding Activity” value in [5] was 0.004 KD(G1d)/KD(variant). Besides, the “Relative FcgRIIaH-binding Activity” value in assay [6] was 0.003 KD(G1d)/KD(variant). Further, the “Relative FcgRIa-binding Activity” value in assay [7] is 0.0005 KD(G1d)/KD(variant). For the same molecule, the “Relative FcgRIIaR-binding Activity” value in [8] is 0.017 KD(G1d)/KD(variant). In assay [9], the “Relative FcgRIIb-binding Activity” value is 1.52 KD(G1d)/KD(variant).

B9: IL6R-G1dGSS/IL6R-L (antibody, human IgG1, kappa)
heavy: B4 heavy with D235E, D240P, I266V, A269S, E270H, G273P, A329G, A332S, P333S
light: not shown
Take B9: the Kd is 1.2 µM in [10]; 2.4 µM in [11]; 1.6 µM in [12]; 0.00033 µM in [13]; 1.4 µM in assay [14]. Moreover, in assay [15], the “Relative FcgRIIaH-binding Activity” value amounted to 0.517. For the same molecule, in assay [16], the “Relative FcgRIIb-binding Activity” value was determined as 0.9. Also, in assay [17], the “Relative FcgRIIIaV-binding Activity” value amounted to 0.231. In addition, the “Relative FcgRIa-binding Activity” value in assay [18] worked out at 0.97. For the same molecule, the “Relative FcgRIIaR-binding Activity” value in [19] came to 0.79.

B10: IL6R-P694/IL6R-L (antibody, human IgG1, kappa)
heavy: B4 heavy with A269R, Y298E
light: not shown
B10: in assay [5], the “Relative FcgRIIIaV-binding Activity” value is 0.007 KD(G1d)/KD(variant). In assay [6], the “Relative FcgRIIaH-binding Activity” value was 0.005 KD(G1d)/KD(variant). For the same molecule, in assay [7], the “Relative FcgRIa-binding Activity” value was 0.0008 KD(G1d)/KD(variant). Further, in [8], the “Relative FcgRIIaR-binding Activity” value was 0.02 KD(G1d)/KD(variant). The “Relative FcgRIIb-binding Activity” value in assay [9] was 1.83 KD(G1d)/KD(variant).

For orientation: Kd means the concentration at which binding is half-saturated. Lower therefore signals tighter binding.

The values above are taken from patent publication US20220411483A1 (Chugai, published 2022).
